T1: ActRIIB-A1 (SEQ ID NO: 120) chimera-Fc protein (Homo sapiens (Human), UniProt Q13705 28-134)
T1 construct: Tested as chimera-Fc protein; not shown: linker (if any) and Fc domain
T1 sequence: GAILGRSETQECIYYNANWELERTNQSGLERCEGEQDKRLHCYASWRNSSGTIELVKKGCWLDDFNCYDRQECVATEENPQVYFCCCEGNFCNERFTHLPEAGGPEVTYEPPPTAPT

T2: ActRIIB (SEQ ID NO: 31) Fc protein (human, UniProt Q13705 20-134)
T2 construct: also called ActRII-Fc; wild-type extracellular ActRIIB; not shown: linker (if any) and Fc domain
T2 sequence: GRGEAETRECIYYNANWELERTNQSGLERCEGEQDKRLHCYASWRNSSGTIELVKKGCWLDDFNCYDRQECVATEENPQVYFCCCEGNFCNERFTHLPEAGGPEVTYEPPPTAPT


Columns and labels:
[1] = target: T1, ActRIIB-A1 (SEQ ID NO: 120) chimera-Fc …; test: SPR (Biacore 8K), Fc protein captured on anti-human IgG, ligand injected
Summary of the method: (§1)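 Fc fusion captured (60-90 RU) on anti-human IgG CM4 chip; ligand injected in concentration series, 60 s association, ≥5 min dissociation, with reference flow cell and 0 nM buffer double referencing. Surface regenerated with 3 M MgCl2; kinetics evaluated per interaction.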

[2] = target: T2, ActRIIB (SEQ ID NO: 31) Fc protein; test: as above
Summary of the method: as §1

Kd [1]	Kd [2]	Binder
0.0151 nM	0.0358 nM	BMP-9 (ligand, UniProt Q9UK05 320-429, looked up, also called bone morphogenetic protein 9) SAGAGSHCQKTSLRVNFEDIGWDSWIIAPKEYEAYECKGGCFFPLADDVTPTKHAIVQTLVHLKFPTKVGKACCVPTKLSPISVLYKDDMGVPTLKYHYEGMSVAECGCR
< 0.001 nM	< 0.001 nM	GDF-11 (ligand, UniProt O95390 299-407, looked up, also called growth and differentiation factor 11) NLGLDCDEHSSESRCCRYPLTVDFEAFGWDWIIAPKRYKANYCSGQCEYMFMQKYPHTHLVQQANPRGSAGPCCTPTKMSPINMLYFNDKQQIIYGKIPGMVVDRCGCS
0.0175 nM	0.0105 nM	BMP-10 (ligand, UniProt O95393 317-424, looked up) NAKGNYCKRTPLYIDFKEIGWDSWIIAPPGYEAYECRGVCNYPLAEHLTPTKHAIIQALVHLKNSQKASKACCVPTKLEPISILYLDKGVVTYKFKYEGMAVSECGCR

Source: US20250270287A1 (KEROS THERAPEUTICS, published 2025)
